In assay [1] the target is T1, AnkB MBD 'site-2' mutant (Ile267Gln, Leu300Gln) (human, UniProt Q01484-2 28-847, Ile267Gln | Leu300Gln).
T1 sequence: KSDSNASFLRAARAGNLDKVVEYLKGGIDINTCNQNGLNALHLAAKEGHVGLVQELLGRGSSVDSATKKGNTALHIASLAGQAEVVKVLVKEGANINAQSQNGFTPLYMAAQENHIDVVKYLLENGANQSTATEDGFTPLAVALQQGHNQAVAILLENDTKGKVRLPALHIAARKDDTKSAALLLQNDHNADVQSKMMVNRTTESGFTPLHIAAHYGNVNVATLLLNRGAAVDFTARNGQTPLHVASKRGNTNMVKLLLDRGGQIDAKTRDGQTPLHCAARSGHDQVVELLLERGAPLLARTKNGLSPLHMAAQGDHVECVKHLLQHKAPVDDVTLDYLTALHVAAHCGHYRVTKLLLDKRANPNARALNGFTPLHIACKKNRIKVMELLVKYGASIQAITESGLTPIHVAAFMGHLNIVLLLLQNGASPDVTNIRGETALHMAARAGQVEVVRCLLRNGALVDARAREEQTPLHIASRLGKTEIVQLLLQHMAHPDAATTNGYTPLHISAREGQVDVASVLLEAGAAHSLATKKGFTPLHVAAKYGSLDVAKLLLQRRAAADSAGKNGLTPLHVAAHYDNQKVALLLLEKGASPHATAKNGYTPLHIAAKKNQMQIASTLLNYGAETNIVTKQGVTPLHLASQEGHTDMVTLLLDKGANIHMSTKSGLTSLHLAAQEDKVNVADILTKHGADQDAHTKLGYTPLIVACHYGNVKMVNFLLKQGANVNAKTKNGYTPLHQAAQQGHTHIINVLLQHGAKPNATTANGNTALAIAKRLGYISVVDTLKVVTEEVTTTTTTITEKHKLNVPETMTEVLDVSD
Briefly: ITC. (In general: ITC needs no label: the signal is the heat of the interaction.)

In assay [2] the target is T2, AnkB 28–847 (MBD + partial AI-c) (human, UniProt Q01484-2 28-847).
T2 chain: T1 sequence with Q240I, Q273L
The experiment in a line: ITC.

The target of assay [3] is T3, AnkB_MBD (AnkB ANK repeats only, aa 28–827) (human, UniProt Q01484-2 28-827).
T3 chain: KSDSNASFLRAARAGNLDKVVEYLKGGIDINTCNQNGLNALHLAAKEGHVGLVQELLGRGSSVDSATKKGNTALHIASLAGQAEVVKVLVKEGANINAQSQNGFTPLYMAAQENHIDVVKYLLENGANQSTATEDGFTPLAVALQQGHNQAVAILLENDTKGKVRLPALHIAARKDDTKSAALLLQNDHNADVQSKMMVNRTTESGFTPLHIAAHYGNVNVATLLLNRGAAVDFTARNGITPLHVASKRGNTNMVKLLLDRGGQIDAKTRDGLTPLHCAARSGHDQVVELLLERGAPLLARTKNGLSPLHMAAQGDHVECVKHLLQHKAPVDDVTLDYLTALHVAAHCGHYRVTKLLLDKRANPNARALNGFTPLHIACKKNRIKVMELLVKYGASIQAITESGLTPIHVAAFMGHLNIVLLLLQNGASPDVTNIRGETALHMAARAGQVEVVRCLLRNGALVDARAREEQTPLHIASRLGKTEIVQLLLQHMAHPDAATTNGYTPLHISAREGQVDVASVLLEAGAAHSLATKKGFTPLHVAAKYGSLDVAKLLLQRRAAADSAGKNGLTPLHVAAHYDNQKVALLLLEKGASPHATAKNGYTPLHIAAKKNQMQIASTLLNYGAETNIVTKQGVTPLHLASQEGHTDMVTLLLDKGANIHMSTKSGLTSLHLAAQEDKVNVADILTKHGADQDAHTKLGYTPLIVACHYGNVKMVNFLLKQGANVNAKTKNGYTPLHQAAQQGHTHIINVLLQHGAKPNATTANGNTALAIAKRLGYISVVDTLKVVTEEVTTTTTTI
The experiment in a line: ITC.

In the next assay the target is T4, AnkB_MBD Asn595Ala (human, UniProt Q01484-2 28-827, Asn595Ala).
T4 sequence: T3 chain with N568A
The experiment in a line: ITC.

Assay [4] concerns the target T3, AnkB_MBD (AnkB ANK repeats only, aa …). The experiment in a line: ITC.
Assay [5] concerns the target T5, AnkG 38–855 (AnkG MBD-AI-c protein; MBD + partial AI-c) (rat, UniProt O70511-1 38-855).
T5 chain: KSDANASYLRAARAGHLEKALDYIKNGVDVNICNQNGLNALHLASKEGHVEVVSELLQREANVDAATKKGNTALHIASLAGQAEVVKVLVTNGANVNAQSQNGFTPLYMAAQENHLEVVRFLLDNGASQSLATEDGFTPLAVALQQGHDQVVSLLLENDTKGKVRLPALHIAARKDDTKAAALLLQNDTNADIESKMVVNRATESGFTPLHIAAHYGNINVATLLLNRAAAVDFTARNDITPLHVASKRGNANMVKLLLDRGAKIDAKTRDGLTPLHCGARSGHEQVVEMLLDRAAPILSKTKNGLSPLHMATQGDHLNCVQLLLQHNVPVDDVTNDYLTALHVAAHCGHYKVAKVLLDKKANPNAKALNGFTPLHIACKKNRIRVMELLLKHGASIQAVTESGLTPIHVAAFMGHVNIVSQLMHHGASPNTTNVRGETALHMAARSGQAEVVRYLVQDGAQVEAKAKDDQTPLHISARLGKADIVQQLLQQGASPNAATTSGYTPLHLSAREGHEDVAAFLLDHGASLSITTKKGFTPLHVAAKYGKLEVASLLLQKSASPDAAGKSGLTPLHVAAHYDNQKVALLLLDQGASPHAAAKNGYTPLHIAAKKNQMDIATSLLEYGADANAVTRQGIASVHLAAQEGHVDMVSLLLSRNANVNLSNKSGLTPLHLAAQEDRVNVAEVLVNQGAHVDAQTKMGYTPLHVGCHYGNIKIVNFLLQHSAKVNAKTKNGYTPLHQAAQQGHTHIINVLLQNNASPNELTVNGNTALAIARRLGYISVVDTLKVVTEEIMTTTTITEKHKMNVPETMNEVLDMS
The experiment in a line: ITC.

Assay [6] deals with T2, AnkB 28–847 (MBD + partial AI-c). Briefly: ITC.
The target of assay [7] is T6, AnkG 38–903 (MBD + AI-c + AI-b) (rat, UniProt O70511-1 38-903).
T6 chain: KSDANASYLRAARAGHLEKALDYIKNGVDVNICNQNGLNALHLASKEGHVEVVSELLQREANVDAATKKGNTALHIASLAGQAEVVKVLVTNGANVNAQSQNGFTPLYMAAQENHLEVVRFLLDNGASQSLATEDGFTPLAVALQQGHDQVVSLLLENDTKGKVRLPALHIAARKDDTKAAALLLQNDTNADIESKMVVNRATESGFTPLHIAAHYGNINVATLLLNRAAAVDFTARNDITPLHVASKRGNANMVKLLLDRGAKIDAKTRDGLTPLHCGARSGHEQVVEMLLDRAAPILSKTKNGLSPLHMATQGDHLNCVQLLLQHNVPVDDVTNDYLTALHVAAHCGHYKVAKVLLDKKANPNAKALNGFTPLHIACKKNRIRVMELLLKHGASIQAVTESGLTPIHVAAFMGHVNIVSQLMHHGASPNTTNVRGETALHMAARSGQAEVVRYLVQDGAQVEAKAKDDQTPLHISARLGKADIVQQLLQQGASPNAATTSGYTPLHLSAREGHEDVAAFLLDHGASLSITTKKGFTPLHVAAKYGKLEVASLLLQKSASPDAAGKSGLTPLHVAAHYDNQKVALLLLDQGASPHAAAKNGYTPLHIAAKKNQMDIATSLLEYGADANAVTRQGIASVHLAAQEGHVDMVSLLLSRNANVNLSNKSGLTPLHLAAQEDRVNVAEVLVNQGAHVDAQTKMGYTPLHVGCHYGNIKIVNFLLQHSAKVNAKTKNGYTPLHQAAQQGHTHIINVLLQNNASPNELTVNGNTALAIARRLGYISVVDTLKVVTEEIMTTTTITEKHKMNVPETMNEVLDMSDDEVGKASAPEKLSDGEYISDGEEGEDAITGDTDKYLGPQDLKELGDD
Briefly: ITC; too weak to be reliably fit.

Consider four molecules from PMC5779224 (2017).

Where a chain is given by its changes, count along the chain named. Where two headings read alike, the source gives them in different places.

For orientation: Kd means the constant that tells how readily two partners part at equilibrium. With EDLKELGDDSLPSSQFLDGMNYLRYSLEGGRS (domain or fragment) [AnkB_AI-b (aa 865–896)], the values for the Kd in assay [1] and in assay [2] were 8500 nM and 3700 nM, respectively.
With TEKHKLNVPETMTEVLDVSDEEGDD (domain or fragment) [AnkB_AI-c (aa 828–852)], the Kd in assay [3] turned out to be 360 nM; with AnkB_MBD Asn595Ala it was 2400 nM.
In assay [4], CADQYWNEVAVIDAIPLAATEHDTMLEMSDMQVWSAGDHPPIVSEEDIS [AnkR/B_CT Chimera] registered a Kd of 470 nM.

B1: E-cadherin (aa 734–884) (domain or fragment)
chain: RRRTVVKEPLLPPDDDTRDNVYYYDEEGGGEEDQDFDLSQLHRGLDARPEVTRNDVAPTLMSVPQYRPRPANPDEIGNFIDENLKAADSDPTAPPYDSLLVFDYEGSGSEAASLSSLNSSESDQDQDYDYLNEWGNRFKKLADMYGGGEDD
Turning to B1, the equilibrium dissociation constant (Kd) in assay [5] was 610 nM; in assay [6] it was 780 nM; in assay [7], approximately 45000 nM.
